B1: Phospholipase A and acyltransferase 4 (Homo sapiens), Q9UL19 (parent)
chain: MASPHQEPKPGDLIEIFRLGYEHWALYIGDGYVIHLAPPSEYPGAGSSSVFSVLSNSAEVKRERLEDVVGGCCYRVNNSLDHEYQPRPVEVIISSAKEMVGQKMKYSIVSRNCEHFVTQLRYGKSRCKQVEKAKVEVGVATALGILVVAGCSFAIRRYQKKATA
B2: F-box/WD repeat-containing protein 1A (Homo sapiens), Q9Y297 (parent)
chain: MDPAEAVLQEKALKFMCSMPRSLWLGCSSLADSMPSLRCLYNPGTGALTAFQNSSEREDCNNGEPPRKIIPEKNSLRQTYNSCARLCLNQETVCLASTAMKTENCVAKTKLANGTSSMIVPKQRKLSASYEKEKELCVKYFEQWSESDQVEFVEHLISQMCHYQHGHINSYLKPMLQRDFITALPARGLDHIAENILSYLDAKSLCAAELVCKEWYRVTSDGMLWKKLIERMVRTDSLWRGLAERRGWGQYLFKNKPPDGNAPPNSFYRALYPKIIQDIETIESNWRCGRHSLQRIHCRSETSKGVYCLQYDDQKIVSGLRDNTIKIWDKNTLECKRILTGHTGSVLCLQYDERVIITGSSDSTVRVWDVNTGEMLNTLIHHCEAVLHLRFNNGMMVTCSKDRSIAVWDMASPTDITLRRVLVGHRAAVNVVDFDDKYIVSASGDRTIKVWNTSTCEFVRTLNGHKRGIACLQYRDRLVVSGSSDNTIRLWDIECGACLRVLEGHEELVRCIRFDNKRIVSGAYDGKIKVWDLVAALDPRAPAGTLCLRTLVEHSGRVFRLQFDEFQIVSSSHDDTILIWDFLNDPAAQAEPPRSPSRTYTYISR
partner: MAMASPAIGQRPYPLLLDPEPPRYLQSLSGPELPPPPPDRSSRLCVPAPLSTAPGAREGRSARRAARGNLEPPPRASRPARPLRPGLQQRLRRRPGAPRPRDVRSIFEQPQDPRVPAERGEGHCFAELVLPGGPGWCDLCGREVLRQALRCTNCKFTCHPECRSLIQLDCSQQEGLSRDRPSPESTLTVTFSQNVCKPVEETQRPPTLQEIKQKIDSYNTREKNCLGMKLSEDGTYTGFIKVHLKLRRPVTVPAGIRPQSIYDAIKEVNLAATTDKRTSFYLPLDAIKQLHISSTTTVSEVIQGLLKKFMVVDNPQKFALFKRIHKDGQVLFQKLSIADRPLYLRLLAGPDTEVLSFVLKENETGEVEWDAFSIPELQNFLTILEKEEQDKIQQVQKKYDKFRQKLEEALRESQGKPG
B3: Regulator of G-protein signaling 20 (Homo sapiens), O76081 (parent)
chain: MPQLSQDNQECLQKHFSRPSIWTQFLPLFRAQRYNTDIHQITENEGDLRAVPDIKSFPPAQLPDSPAAPKLFGLLSSPLSSLARFFSHLLRRPPPEAPRRRLDFSPLLPALPAARLSRGHEELPGRLSLLLGAALALPGRPSGGRPLRPPHPVAKPREEDATAGQSSPMPQMGSERMEMRKRQMPAAQDTPGAAPGQPGAGSRGSNACCFCWCCCCSCSCLTVRNQEDQRPTIASHELRADLPTWEESPAPTLEEVNAWAQSFDKLMVTPAGRNAFREFLRTEFSEENMLFWMACEELKKEANKNIIEEKARIIYEDYISILSPKEVSLDSRVREVINRNMVEPSQHIFDDAQLQIYTLMHRDSYPRFMNSAVYKDLLQSLSEKSIEA
B4: Zinc finger protein 488 (Homo sapiens), Q96MN9 (parent)
chain: MPEWPPCLSVAPALVITMAAGKGAPLSPSAENRWRLSEPELGRGCKPVLLEKTNRLGPEAAVGRAGRDVGSAELALLVAPGKPRPGKPLPPKTRGEQRQSAFTELPRMKDRQVDAQAQEREHDDPTGQPGAPQLTQNIPRGPAGSKVFSVWPSGARSEQRSAFSKPTKRPAERPELTSVFPAGESADALGELSGLLNTTDLACWGRLSTPKLLVGDLWNLQALPQNAPLCSTFLGAPTLWLEHTQAQVPPPSSSSTTSWALLPPTLTSLGLSTQNWCAKCNLSFRLTSDLVFHMRSHHKKEHAGPDPHSQKRREEALACPVCQEHFRERHHLSRHMTSHS

Variants of: B1
Settings: with sgta_human SGTA

| Variant | effect of a mutation on the interaction |
| --- | --- |
| T141M | disrupting interaction strength |

Variants of: B2
Settings: with rasf5_human RASSF5, Q8WWW0

| Variant | effect of a mutation on the interaction |
| --- | --- |
| L8M | with no effect |
| P592H | with no effect |
| I439V | disrupting interaction strength |
| T414A | disrupting interaction strength |
| R594H | with no effect |
| T601S | with no effect |

Variants of: B3
Settings: with otx1_human OTX1, P32242
otx1_human OTX1, P32242, sequence (P32242 whole entry): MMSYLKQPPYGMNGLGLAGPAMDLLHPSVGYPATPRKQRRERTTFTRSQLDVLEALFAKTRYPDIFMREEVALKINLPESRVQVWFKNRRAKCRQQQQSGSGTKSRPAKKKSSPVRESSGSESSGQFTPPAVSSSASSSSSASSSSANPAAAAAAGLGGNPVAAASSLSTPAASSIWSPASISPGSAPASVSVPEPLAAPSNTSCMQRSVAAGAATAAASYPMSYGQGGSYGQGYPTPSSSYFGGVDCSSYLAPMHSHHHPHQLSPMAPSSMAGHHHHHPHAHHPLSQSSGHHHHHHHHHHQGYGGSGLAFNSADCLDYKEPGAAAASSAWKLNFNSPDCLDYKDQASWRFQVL

| Variant | effect of a mutation on the interaction |
| --- | --- |
| H347Y | with no effect |

Variants of: B3
Settings: with co8a1_human COL8A1, P27658
co8a1_human COL8A1, P27658, sequence (P27658 whole entry): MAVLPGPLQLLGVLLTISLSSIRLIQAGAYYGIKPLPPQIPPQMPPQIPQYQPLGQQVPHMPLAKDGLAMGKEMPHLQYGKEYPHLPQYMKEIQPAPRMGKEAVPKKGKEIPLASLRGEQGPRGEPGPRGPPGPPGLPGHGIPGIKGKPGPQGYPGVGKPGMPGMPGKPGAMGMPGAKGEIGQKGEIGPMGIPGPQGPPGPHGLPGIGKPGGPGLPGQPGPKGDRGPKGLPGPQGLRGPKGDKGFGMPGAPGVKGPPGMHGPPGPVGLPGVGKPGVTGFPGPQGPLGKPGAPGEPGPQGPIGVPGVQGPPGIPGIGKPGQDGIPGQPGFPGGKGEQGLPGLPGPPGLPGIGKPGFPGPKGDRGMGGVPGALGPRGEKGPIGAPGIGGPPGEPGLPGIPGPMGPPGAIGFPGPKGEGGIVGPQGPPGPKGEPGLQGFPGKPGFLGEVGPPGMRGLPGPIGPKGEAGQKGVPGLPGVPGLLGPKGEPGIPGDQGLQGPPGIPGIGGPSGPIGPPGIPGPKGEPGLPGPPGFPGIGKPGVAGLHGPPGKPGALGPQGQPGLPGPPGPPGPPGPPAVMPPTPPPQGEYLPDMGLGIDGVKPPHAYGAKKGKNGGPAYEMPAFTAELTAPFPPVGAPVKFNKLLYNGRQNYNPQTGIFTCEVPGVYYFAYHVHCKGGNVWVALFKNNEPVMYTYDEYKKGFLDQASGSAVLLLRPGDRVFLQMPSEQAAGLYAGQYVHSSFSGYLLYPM

| Variant | effect of a mutation on the interaction |
| --- | --- |
| H347Y | with no effect |

Variants of: B3
Settings: with hxa1_human HOXA1, P49639
hxa1_human HOXA1, P49639, sequence (P49639 whole entry): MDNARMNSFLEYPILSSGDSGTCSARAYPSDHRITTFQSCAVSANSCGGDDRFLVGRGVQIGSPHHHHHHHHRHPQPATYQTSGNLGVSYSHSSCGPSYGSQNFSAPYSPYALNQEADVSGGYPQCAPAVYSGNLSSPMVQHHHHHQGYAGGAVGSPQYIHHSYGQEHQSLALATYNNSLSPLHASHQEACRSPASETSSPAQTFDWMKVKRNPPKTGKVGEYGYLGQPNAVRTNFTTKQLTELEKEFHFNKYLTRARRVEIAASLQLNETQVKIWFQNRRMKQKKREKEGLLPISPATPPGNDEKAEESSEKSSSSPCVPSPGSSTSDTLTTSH

| Variant | effect of a mutation on the interaction |
| --- | --- |
| H347Y | with no effect |

Variants of: B4
Settings: with rbpms_human RBPMS

| Variant | effect of a mutation on the interaction |
| --- | --- |
| A72V | with no effect |
| C230R | with no effect |

Reference: IntAct's records for PubMed 31515488
